# Patent US20100124555A1, “Compositions and Methods for Treating Pancreatic Tumors” (UNIVERSITE DE LA MEDITERRANEE, priority 2007, published 2010)
# Columns and labels:
# SOJ-6 cells [1] = test: Apoptosis by caspase activity (CaspACE FITC-VAD-fmk in situ marker); format: cell-based, human
# Experimental: Cells grown in 8-well plates (Polystyrene vessel, BD Falcon) were treated with mAb16D10 or mouse IgM in RPMI with inactivated FCS for 24 hours prior to the addition of CaspACE FITC-VAD-fmk in situ marker (Promega) at a final concentration of 10 μM in the culture medium according to manufacturer's instructions. Then cells were washed in PBS, fixed for 15 minutes in 2% paraformaldehyde, and washed once again. Upon caspase action on FITC-VAD-fmk, apoptotic cells become fluorescent and the number of fluorescent cells was determined in triplicate on collections of 10 fields randomly examined under the fluorescent microscope.
# SOJ-6 cells [2] = test: Nuclear staining with DAPI (nuclear fragmentation); format: cell-based, human; details: RPMI induced no apoptosis
# Experimental: After treatment with mAb16D10 or cisplatin, cells were washed in ice-cold PBS, fixed and permeablized with 70% ethanol for 5 min at […] and staining with diluted 1/1000 DAPI solution in PBS for 1 min at room temperature. The cells were then washed with PBS. The nuclear morphology of cells was examined by fluorescence microscopy.
# [3] = tested on: Bcl-2, Bax, caspases 8 and 9, PARP in SOJ-6 cells; test: SDS-PAGE and western blot of apoptosis proteins; format: cell-based, human; details: SOJ-6 cells, 24 h
# Experimental: SOJ-6 cells were grown in 6-well culture plates in RPMI 1640 medium with 10% FCS. At subconfluency, the medium was removed and replaced for 24 hours by fresh RPMI medium with 10% inactivated FCS. SOJ-6 cells were then incubated with mAb16D10 or Cisplatin for 24 hours. At the end of incubation, cells were washed three times with ice-cold PBS (without […] and Mg^++) harvested and pelleted by centrifugation. Pellets were washed twice and lysed at 4° C. in 0.5 ml of lysis buffer (10 mM Tris-HCl pH 7.4, 150 mM NaCl, 1% Triton X-100, 1 mM benzamidine and phosphatase inhibitors). After lysis, homogenates were clarified by centrifugation at 10,000 g for 10 min at 4° C. An aliquot was saved for protein determination using the bicinchoninic acid assay (Pierce, Rockford, Ill.). Proteins (50 μg/lane) in reducing SDS buffer were separated onto 10, 12, or 15% polyacrylamide with 0.1% SDS (according to the molecular weight range of proteins to be separated). After electrophoretic migration, proteins were silver stained. Alternatively, proteins were transferred onto nitrocellulose membranes using a Mini Transblot electrophoretic cell (BioRad, Hercule, Oreg.), and transferred proteins were immunodetected by using appropriate primary and secondary antibodies. After washes, membranes were developed with a chemoluminescent substrate according to the manufacturer's instructions (Roche Diagnostics, Switzerland). In each experiment, a control was included by omitting primary antibodies or by using a non-immune serum.
# SOJ-6 cells [4] = test: MTT cell growth and proliferation assay, SOJ-6; format: cell-based, human; details: SOJ-6, increasing concentrations of antibody, 24 h
# Experimental: (§1) Cell proliferation was determined using MTT assay as previously described (Mosmann et al., 1983 J Immunol Methods, 65(1-2):55-63). Briefly, cells were seeded at subconfluence in appropriate complete media containing 10% FCS in 96-well culture plates. Media were replaced for 24 h by fresh media with 10% inactivated FCS, including increasing concentrations of antibodies directed against FAPP (pAbL64, mAbJ28 and mAb16D10). Cells were washed with PBS and incubated with 100 μl of MTT (0.5 mg/ml) in complete media for 3 h, washed with PBS and finally incubated with DMSO for 30 min at 37° C. Cell growth was determined by measuring absorbance at 550 nm using a MR 5000 microplate spectrophotometer. All independent determinations were done in triplicate and compared to control.
# PANC-1 cells = test: MTT cell growth and proliferation assay, PANC-1; format: cell-based, human; details: PANC-1, increasing concentrations of antibody, 24 h
# Experimental: as §1
# [5] = tested on: E-cadherin in PANC-1 cells; test: Immunofluorescence of E-cadherin, PANC-1; format: cell-based, human; details: PANC-1 treated or not with mAb16D10
# [6] = tested on: 16D10 antigen on SOJ-6 cells; test: Flow cytometry detection of antigen at the cell surface, SOJ-6; format: binding, human
# Experimental: (§2) Detection of antigens at the surface of SOJ-6 and PANC-1 cells was carried out by indirect fluorescence under the following conditions: cells were released from culture plates by treatment with a non enzymatic dissociation liquid (Calbiochem) for 15 minutes at 37° C. All subsequent steps were carried out at 4° C. The cells were washed with phosphate buffered saline (PBS), fixed with 2% paraformaldehyde in PBS for 15 minutes, and washed with 1% BSA in PBS for 15 minutes. Antigens were exposed for 2 hours to specific antibodies, washed with PBS, and finally incubated for 45 minutes with appropriate FITC-labeled secondary antibodies. Cells were then washed, resuspended in isoflow buffer, and analyzed on Coulter FACSCalibur device.
# (§3) Flow cytometry experiments were carried out to investigate whether the antigen recognized by 16D10 was found on the surface of cells. Results are shown in FIGS. 14 and 15, representing SOJ-6 and PANC-1 cells, respectively. […] In each case, 16D10 binding was compared to a negative control and a control mouse IgM (Sigma).
# [7] = tested on: 16D10 antigen on PANC-1 cells; test: Flow cytometry detection of antigen at the cell surface, PANC-1; format: binding, human
# Experimental: as §2, §3
# SOJ-6 cells [8] = test: Effect of antibodies on SOJ-6 cell proliferation (Example 11); format: cell-based, human
# Experimental: The effects of the IgM antibody 16D10 and the chimeric antibody rec16D10 on the proliferation of SOJ-6 cells were examined. Cells were incubated in culture with no antibodies, with various amounts of 16D10 or rec16D10 antibodies, or with an irrelevant IgG antibody. Antibody 16D10 reduced cell proliferation by approximately 50% at either 25 or 50 μg/ml, while rec16D10 reduced proliferation by more than 20% and more than 35% at 25 and 50 μg/ml, respectively (FIG. 18).
# [9] = Tissue cross-reaction study (staining of healthy tissues); details: non-specific crossreactivity
# Experimental: The staining specificity of the IgM 16D10 and chimeric IgG rec16D10 antibodies was assessed by examining their respective staining of various healthy tissues. […] Staining with the chimeric antibody reel 6D10, in contrast, was negative on each of these healthy tissues.
# [10] = tested on: cell surface antigens of fixed SOJ-6 cells; test: FACS cell surface binding stability on fixed SOJ-6 cells; design: species or system human; details: preliminary FACS experiments
# From the text: Taking in account that most of the antibodies that have been studied so far at Innate Pharma, have kon rate association constants ranging from 5×10^5 to 5×10^6 M^−1s^−1, one can estimate that the recombinant 16D10 antibody bivalent affinity is in the nanomolar order (e.g., 10 to 1 nanoM) which is compatible with the industrial development of a therapeutic antibody.
molecule,measurement,setting,value
"16D10: IgM monoclonal antibody recognizing FAPP/BSDL; producing cells deposited with the CNCM under the number I-3188 (antibody, listed as Mus musculus, V domains shown) VH: QVQLQQSDAELVKPGASVKISCKASGYTFTDHAIHWVKQKPEQGLEWIGYISPGNDVIKFNEKFKGKATLTADKSSSTAYMQLNSLTSEDSAVYFCKRSEGGVFDYWGQGTTLTVS VL: NIMMTQSPSSLAVSAGEKVTMSCKSSQSVLYSSNQKNFLAWYQQKPGQSPKLLIYWASTRESGVPDRFTGSGSGTDFTLTISSVQAEDLAVYYCHQYLSSYTFGGGTKLEIK",apoptotic cellular death of SOJ-6 cells (number of apoptotic cells/cm2),"SOJ-6 cells [1]; 24 h, compared to RPMI and mouse IgM",leads to the apoptosis of SOJ-6 cells
same,apoptosis by caspase activity (number of apoptotic cells compared to control),"SOJ-6 cells [1]; SOJ-6, 24 hours, 16D10 25 μg/ml, recombinant chimeric 16D10 5 μg/ml",clearly enhanced
same,caspases through which apoptosis is stimulated,SOJ-6 cells [1]; cells pre-treated with or without caspase inhibitors,"stimulates apoptosis through the caspase-3, caspase-8, and caspase-9"
same,apoptosis observed by DAPI staining (nuclear fragmentation),SOJ-6 cells [2],significant levels of apoptosis
same,Bax protein level,[3],increase of Bax protein
same,anti-apoptotic protein Bcl-2 level,[3],decrease of the anti-apoptotic protein Bcl-2
same,"mediators of induced apoptosis (caspases, PARP cleavage)",[3],"mediated via caspases 8 and 9, and poly-ADP ribose polymerase (PARP) cleavage"
same,% growth of cells,SOJ-6 cells [4],does cause a decrease in SOJ-6 cells
same,% growth of cells,PANC-1 cells,unable to cause a decrease in growth or number of PANC-1 cells
same,E-cadherin at the plasma membrane,[5],did not express E-cadherin at their plasma membrane
same,effect of trypsin incubation on binding to SOJ-6 cells,[6]; antibody incubated with trypsin,substantially decrease the binding
same,binding to antigen on SOJ-6 cells,[6]; flow cytometry / FACS,found to bind antigen present on SOJ-6 cells
same,binding to antigen on PANC-1 cells,[7],did not bind antigen present on PANC-1 cells
same,reduction of SOJ-6 cell proliferation,SOJ-6 cells [8]; 25 μg/ml,approximately 50%
same,reduction of SOJ-6 cell proliferation,SOJ-6 cells [8]; 50 μg/ml,approximately 50%
same,"staining of healthy tissues (tonsils, salivary gland, peripheral nerve, eyes, bone marrow, ovary, oviduct, parathyroid, prostate, spleen, kidney, adrenals, testes, thymus, ureters, uterus, bladder)",[9],positive staining
same,stability of staining on fixed SOJ-6 cells,[10],seemed stable
